Source: PMC5993042
pIC50: −log10 of the molar value.

Molecular target: estrogen receptor α (as used in the TR-FRET assay) (UniProt P03372)
Assay: FRET or BRET

estrogen receptor α (as used in the TR-FRET assay), sequence (P03372 311-547): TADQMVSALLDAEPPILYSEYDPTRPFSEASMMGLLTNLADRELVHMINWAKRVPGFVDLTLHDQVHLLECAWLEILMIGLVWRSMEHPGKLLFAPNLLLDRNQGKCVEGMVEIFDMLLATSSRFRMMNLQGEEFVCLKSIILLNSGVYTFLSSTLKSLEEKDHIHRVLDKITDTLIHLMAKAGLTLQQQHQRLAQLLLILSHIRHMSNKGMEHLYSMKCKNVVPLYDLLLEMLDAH

pIC50: 5.96
Substance: SRC2-WT (peptide)
